{"source": "the supplement of paper PMC9112550", "about": "“Optimization of the antimicrobial peptide Bac7 by deep mutational scanning” (BMC Biology, 2022);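 note: peptides expressed intracellularly from a pBAD plasmid library in pooled LB shake-flask culture, induced with 0.3% L-arabinose, DNA abundance read by NGS, three biological replicates, DESeq2 with apeglm shrinkage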", "tested_on": "Escherichia coli TOP10", "test": "shrunken log2 fold change of peptide-encoding DNA abundance (4.5 h post-induction vs induction); higher = less antimicrobial activity (less host growth inhibition)", "settings": "time post-induction: 4.5 h; library: site-saturation at positions 5, 18, 19, 20"}
{"sequence": "RRIRCRPPRLPRPRPRPIFWPRP", "values": [{"measurement": "shrunken log2 fold change", "value": 0.235}]}
{"sequence": "RRIRWRPPRLPRPRPRPRIEPRP", "values": [{"measurement": "shrunken log2 fold change", "value": 0.186}]}
{"sequence": "RRIRWRPPRLPRPRPRPYMVPRP", "values": [{"measurement": "shrunken log2 fold change", "value": -0.844}]}
{"sequence": "RRIRYRPPRLPRPRPRPCQVPRP", "values": [{"measurement": "shrunken log2 fold change", "value": -0.116}]}
{"sequence": "RRIRNRPPRLPRPRPRPMVFPRP", "values": [{"measurement": "shrunken log2 fold change", "value": -0.000155}]}
{"sequence": "RRIRVRPPRLPRPRPRPICKPRP", "values": [{"measurement": "shrunken log2 fold change", "value": -0.149}]}
{"sequence": "RRIRMRPPRLPRPRPRPGMTPRP", "values": [{"measurement": "shrunken log2 fold change", "value": 1.47}]}
{"sequence": "RRIRYRPPRLPRPRPRPRCDPRP", "values": [{"measurement": "shrunken log2 fold change", "value": -0.207}]}
{"sequence": "RRIRSRPPRLPRPRPRPWVKPRP", "values": [{"measurement": "shrunken log2 fold change", "value": 0.194}]}
{"sequence": "RRIRDRPPRLPRPRPRPYRFPRP", "values": [{"measurement": "shrunken log2 fold change", "value": -0.0178}]}
{"sequence": "RRIRWRPPRLPRPRPRPVIHPRP", "values": [{"measurement": "shrunken log2 fold change", "value": 0.162}]}
{"sequence": "RRIRPRPPRLPRPRPRPSMEPRP", "values": [{"measurement": "shrunken log2 fold change", "value": -0.157}]}
{"sequence": "RRIRGRPPRLPRPRPRPTIWPRP", "values": [{"measurement": "shrunken log2 fold change", "value": 0.872}]}
{"sequence": "RRIRQRPPRLPRPRPRPRGPPRP", "values": [{"measurement": "shrunken log2 fold change", "value": 0.0418}]}
{"sequence": "RRIRKRPPRLPRPRPRPTKRPRP", "values": [{"measurement": "shrunken log2 fold change", "value": 0.697}]}
{"sequence": "RRIRHRPPRLPRPRPRPGVFPRP", "values": [{"measurement": "shrunken log2 fold change", "value": 0.0667}]}
{"sequence": "RRIRIRPPRLPRPRPRPIMQPRP", "values": [{"measurement": "shrunken log2 fold change", "value": -0.557}]}
{"sequence": "RRIRHRPPRLPRPRPRPLRYPRP", "values": [{"measurement": "shrunken log2 fold change", "value": -0.388}]}
{"sequence": "RRIRERPPRLPRPRPRPFHDPRP", "values": [{"measurement": "shrunken log2 fold change", "value": -0.291}]}
{"sequence": "RRIRHRPPRLPRPRPRPEPWPRP", "values": [{"measurement": "shrunken log2 fold change", "value": 0.171}]}
{"sequence": "RRIRLRPPRLPRPRPRPWPRPRP", "values": [{"measurement": "shrunken log2 fold change", "value": 0.113}]}
{"sequence": "RRIRSRPPRLPRPRPRPHGVPRP", "values": [{"measurement": "shrunken log2 fold change", "value": 0.013}]}
{"sequence": "RRIRLRPPRLPRPRPRPCVIPRP", "values": [{"measurement": "shrunken log2 fold change", "value": -0.27}]}
{"sequence": "RRIRARPPRLPRPRPRPGYDPRP", "values": [{"measurement": "shrunken log2 fold change", "value": -0.0224}]}
{"sequence": "RRIRNRPPRLPRPRPRPLNPPRP", "values": [{"measurement": "shrunken log2 fold change", "value": -0.133}]}
{"sequence": "RRIRRRPPRLPRPRPRPDARPRP", "values": [{"measurement": "shrunken log2 fold change", "value": 0.553}]}
{"sequence": "RRIRIRPPRLPRPRPRPHKTPRP", "values": [{"measurement": "shrunken log2 fold change", "value": -0.000475}]}
{"sequence": "RRIRCRPPRLPRPRPRPFMNPRP", "values": [{"measurement": "shrunken log2 fold change", "value": -0.00951}]}
{"sequence": "RRIRHRPPRLPRPRPRPWFEPRP", "values": [{"measurement": "shrunken log2 fold change", "value": -0.366}]}
{"sequence": "RRIRDRPPRLPRPRPRPSHKPRP", "values": [{"measurement": "shrunken log2 fold change", "value": -0.373}]}
{"sequence": "RRIRGRPPRLPRPRPRPSVWPRP", "values": [{"measurement": "shrunken log2 fold change", "value": 0.622}]}
{"sequence": "RRIRERPPRLPRPRPRPQIYPRP", "values": [{"measurement": "shrunken log2 fold change", "value": -0.23}]}
{"sequence": "RRIRQRPPRLPRPRPRPPFWPRP", "values": [{"measurement": "shrunken log2 fold change", "value": 0.504}]}
{"sequence": "RRIRGRPPRLPRPRPRPCKNPRP", "values": [{"measurement": "shrunken log2 fold change", "value": 0.397}]}
{"sequence": "RRIRGRPPRLPRPRPRPVVRPRP", "values": [{"measurement": "shrunken log2 fold change", "value": 0.602}]}
{"sequence": "RRIRNRPPRLPRPRPRPQRCPRP", "values": [{"measurement": "shrunken log2 fold change", "value": 0.0227}]}
{"sequence": "RRIRDRPPRLPRPRPRPMNFPRP", "values": [{"measurement": "shrunken log2 fold change", "value": -0.285}]}
{"sequence": "RRIRSRPPRLPRPRPRPGFWPRP", "values": [{"measurement": "shrunken log2 fold change", "value": 0.654}]}
{"sequence": "RRIRFRPPRLPRPRPRPWNTPRP", "values": [{"measurement": "shrunken log2 fold change", "value": -1.19}]}
{"sequence": "RRIRARPPRLPRPRPRPWPTPRP", "values": [{"measurement": "shrunken log2 fold change", "value": 0.703}]}
{"sequence": "RRIRPRPPRLPRPRPRPACPPRP", "values": [{"measurement": "shrunken log2 fold change", "value": 0.147}]}
{"sequence": "RRIRPRPPRLPRPRPRPCFTPRP", "values": [{"measurement": "shrunken log2 fold change", "value": -0.307}]}
{"sequence": "RRIRSRPPRLPRPRPRPEEEPRP", "values": [{"measurement": "shrunken log2 fold change", "value": 1.47}]}
{"sequence": "RRIRFRPPRLPRPRPRPKNTPRP", "values": [{"measurement": "shrunken log2 fold change", "value": -0.487}]}
{"sequence": "RRIRHRPPRLPRPRPRPMKTPRP", "values": [{"measurement": "shrunken log2 fold change", "value": -0.0218}]}
{"sequence": "RRIRERPPRLPRPRPRPRTTPRP", "values": [{"measurement": "shrunken log2 fold change", "value": 0.00749}]}
{"sequence": "RRIRARPPRLPRPRPRPDLGPRP", "values": [{"measurement": "shrunken log2 fold change", "value": 0.438}]}
{"sequence": "RRIRYRPPRLPRPRPRPKEGPRP", "values": [{"measurement": "shrunken log2 fold change", "value": -0.186}]}
{"sequence": "RRIRRRPPRLPRPRPRPGNMPRP", "values": [{"measurement": "shrunken log2 fold change", "value": -0.266}]}
{"sequence": "RRIRHRPPRLPRPRPRPRLKPRP", "values": [{"measurement": "shrunken log2 fold change", "value": -0.0285}]}
{"sequence": "RRIRLRPPRLPRPRPRPSEFPRP", "values": [{"measurement": "shrunken log2 fold change", "value": -0.855}]}
{"sequence": "RRIRPRPPRLPRPRPRPPSKPRP", "values": [{"measurement": "shrunken log2 fold change", "value": 0.105}]}
{"sequence": "RRIRLRPPRLPRPRPRPPLMPRP", "values": [{"measurement": "shrunken log2 fold change", "value": 0.313}]}
{"sequence": "RRIRHRPPRLPRPRPRPNTQPRP", "values": [{"measurement": "shrunken log2 fold change", "value": -0.248}]}
{"sequence": "RRIRNRPPRLPRPRPRPQTIPRP", "values": [{"measurement": "shrunken log2 fold change", "value": -0.194}]}
{"sequence": "RRIRMRPPRLPRPRPRPANYPRP", "values": [{"measurement": "shrunken log2 fold change", "value": -0.394}]}
{"sequence": "RRIRWRPPRLPRPRPRPIGAPRP", "values": [{"measurement": "shrunken log2 fold change", "value": 0.0619}]}
{"sequence": "RRIRVRPPRLPRPRPRPKVTPRP", "values": [{"measurement": "shrunken log2 fold change", "value": 0.0458}]}
{"sequence": "RRIRCRPPRLPRPRPRPYFPPRP", "values": [{"measurement": "shrunken log2 fold change", "value": -0.513}]}
{"sequence": "RRIRYRPPRLPRPRPRPYTEPRP", "values": [{"measurement": "shrunken log2 fold change", "value": 0.034}]}
{"sequence": "RRIRHRPPRLPRPRPRPFFIPRP", "values": [{"measurement": "shrunken log2 fold change", "value": -0.393}]}
{"sequence": "RRIRTRPPRLPRPRPRPNFQPRP", "values": [{"measurement": "shrunken log2 fold change", "value": 0.00569}]}
{"sequence": "RRIRHRPPRLPRPRPRPCMNPRP", "values": [{"measurement": "shrunken log2 fold change", "value": -0.0607}]}
{"sequence": "RRIRNRPPRLPRPRPRPWNHPRP", "values": [{"measurement": "shrunken log2 fold change", "value": -0.612}]}
{"sequence": "RRIRRRPPRLPRPRPRPIDRPRP", "values": [{"measurement": "shrunken log2 fold change", "value": -0.0459}]}
{"sequence": "RRIRSRPPRLPRPRPRPAEPPRP", "values": [{"measurement": "shrunken log2 fold change", "value": -0.16}]}
{"sequence": "RRIRGRPPRLPRPRPRPYTGPRP", "values": [{"measurement": "shrunken log2 fold change", "value": -0.707}]}
{"sequence": "RRIRHRPPRLPRPRPRPIEEPRP", "values": [{"measurement": "shrunken log2 fold change", "value": -0.127}]}
{"sequence": "RRIRPRPPRLPRPRPRPDWGPRP", "values": [{"measurement": "shrunken log2 fold change", "value": 0.107}]}
{"sequence": "RRIRTRPPRLPRPRPRPHCVPRP", "values": [{"measurement": "shrunken log2 fold change", "value": -0.192}]}
{"sequence": "RRIRNRPPRLPRPRPRPQYRPRP", "values": [{"measurement": "shrunken log2 fold change", "value": 0.576}]}
{"sequence": "RRIRTRPPRLPRPRPRPTKIPRP", "values": [{"measurement": "shrunken log2 fold change", "value": -0.169}]}
{"sequence": "RRIRIRPPRLPRPRPRPANPPRP", "values": [{"measurement": "shrunken log2 fold change", "value": -0.29}]}
{"sequence": "RRIRKRPPRLPRPRPRPMSSPRP", "values": [{"measurement": "shrunken log2 fold change", "value": 0.0811}]}
{"sequence": "RRIRQRPPRLPRPRPRPSSMPRP", "values": [{"measurement": "shrunken log2 fold change", "value": -0.201}]}
{"sequence": "RRIRSRPPRLPRPRPRPWPAPRP", "values": [{"measurement": "shrunken log2 fold change", "value": 0.199}]}
{"sequence": "RRIRWRPPRLPRPRPRPMPSPRP", "values": [{"measurement": "shrunken log2 fold change", "value": -0.116}]}
{"sequence": "RRIRLRPPRLPRPRPRPDYMPRP", "values": [{"measurement": "shrunken log2 fold change", "value": -0.548}]}
{"sequence": "RRIRERPPRLPRPRPRPQAAPRP", "values": [{"measurement": "shrunken log2 fold change", "value": -0.194}]}
{"sequence": "RRIRPRPPRLPRPRPRPSRKPRP", "values": [{"measurement": "shrunken log2 fold change", "value": 0.0349}]}
{"sequence": "RRIRHRPPRLPRPRPRPNTCPRP", "values": [{"measurement": "shrunken log2 fold change", "value": -0.53}]}
{"sequence": "RRIRCRPPRLPRPRPRPWWNPRP", "values": [{"measurement": "shrunken log2 fold change", "value": -0.752}]}
{"sequence": "RRIRVRPPRLPRPRPRPRLEPRP", "values": [{"measurement": "shrunken log2 fold change", "value": 0.138}]}
{"sequence": "RRIRHRPPRLPRPRPRPNERPRP", "values": [{"measurement": "shrunken log2 fold change", "value": 0.0404}]}
{"sequence": "RRIRVRPPRLPRPRPRPPWYPRP", "values": [{"measurement": "shrunken log2 fold change", "value": 0.0253}]}
{"sequence": "RRIRSRPPRLPRPRPRPNHPPRP", "values": [{"measurement": "shrunken log2 fold change", "value": -0.0712}]}
{"sequence": "RRIRDRPPRLPRPRPRPTKTPRP", "values": [{"measurement": "shrunken log2 fold change", "value": -0.014}]}
{"sequence": "RRIRKRPPRLPRPRPRPMWGPRP", "values": [{"measurement": "shrunken log2 fold change", "value": -0.0954}]}
{"sequence": "RRIRVRPPRLPRPRPRPKRNPRP", "values": [{"measurement": "shrunken log2 fold change", "value": 0.166}]}
{"sequence": "RRIRERPPRLPRPRPRPHNMPRP", "values": [{"measurement": "shrunken log2 fold change", "value": -0.51}]}
{"sequence": "RRIRERPPRLPRPRPRPDARPRP", "values": [{"measurement": "shrunken log2 fold change", "value": -0.0768}]}
